Square brackets hold non-standard residues; d marks the D form.
B1: SEQ ID NO 38 (peptide)
peptide: Ac-WVTHRLAGLLSQSGGVVRKNFVPTDVGPFAF-NH2
modifications: not fully specified (residue 19); printed as Ac-WVTHRLAGLLSQSGGVVRKNFVPTDVGPFAF-NH2
B2: SEQ ID NO 36 (peptide)
peptide: Ac-WVTHRLAGLLSQSGGVVRCNFVPTDVGPFAF-NH2
modifications: not fully specified (residue 19); printed as Ac-WVTHRLAGLLSQSGGVVRCNFVPTDVGPFAF-NH2
B3: SEQ ID NO 12 (peptide)
peptide: Ac-WVTHRLAGLLSRSGGVVKNNFVPTDVGPFAF-NH2
modifications: not fully specified (residue 18); printed as Ac-WVTHRLAGLLSRSGGVVKNNFVPTDVGPFAF-NH2
B4: SEQ ID NO 42 (peptide)
peptide: Ac-WVTHRLAGLLS[dR]SGGVVRCNFVPTDVGPFAF-NH2
modifications: not fully specified (residue 19); printed as Ac-WVTHRLAGLLSrSGGVVRCNFVPTDVGPFAF-NH2
B5: SEQ ID NO 16 (peptide)
peptide: Ac-WVTHRLAGLLSRSGGVVRKNFVPTDVGPFAF-NH2
modifications: not fully specified (residue 19); printed as Ac-WVTHRLAGLLSRSGGVVRKNFVPTDVGPFAF-NH2
B6: SEQ ID NO 13 (peptide)
peptide: Ac-WVTHRLAGLLSRSGGVVKNNFVPTDVGPFAF-NH2
modifications: not fully specified (residue 18); printed as Ac-WVTHRLAGLLSRSGGVVKNNFVPTDVGPFAF-NH2
B7: SEQ ID NO 18 (peptide)
peptide: Ac-WVTHRLAGLLSRSGGVCRNNFVPTDVGPFAF-NH2
modifications: not fully specified (residue 17); printed as Ac-WVTHRLAGLLSRSGGVCRNNFVPTDVGPFAF-NH2
B8: SEQ ID NO 15 (peptide)
peptide: Ac-WVTHRLAGLLSRSGGVVRKNFVPTDVGPFAF-NH2
modifications: not fully specified (residue 19); printed as Ac-WVTHRLAGLLSRSGGVVRKNFVPTDVGPFAF-NH2
B9: SEQ ID NO 41 (peptide)
peptide: Ac-WVTHRLAGLLS[dR]SGGVVRCNFVPTDVGPFAF-NH2
SMILES: CC(=O)N[C@@H](Cc1c[nH]c2ccccc12)C(=O)N[C@H](C(=O)N[C@H](C(=O)N[C@@H](Cc1c[nH]cn1)C(=O)N[C@@H](CCCNC(=N)N)C(=O)N[C@@H](CC(C)C)C(=O)N[C@@H](C)C(=O)NCC(=O)N[C@@H](CC(C)C)C(=O)N[C@@H](CC(C)C)C(=O)N[C@@H](CO)C(=O)N[C@H](CCCNC(=N)N)C(=O)N[C@@H](CO)C(=O)NCC(=O)NCC(=O)N[C@H](C(=O)N[C@H](C(=O)N[C@@H](CCCNC(=N)N)C(=O)N[C@@H](CS)C(=O)N[C@@H](CC(N)=O)C(=O)N[C@@H](Cc1ccccc1)C(=O)N[C@H](C(=O)N1CCC[C@H]1C(=O)N[C@H](C(=O)N[C@@H](CC(=O)O)C(=O)N[C@H](C(=O)NCC(=O)N1CCC[C@H]1C(=O)N[C@@H](Cc1ccccc1)C(=O)N[C@@H](C)C(=O)N[C@@H](Cc1ccccc1)C(N)=O)C(C)C)[C@@H](C)O)C(C)C)C(C)C)C(C)C)[C@@H](C)O)C(C)C
B10: SEQ ID NO 34 (peptide)
peptide: Ac-WVTHRLAGLLSASGGVVRCNFVPTDVGPFAF-NH2
modifications: not fully specified (residue 19); printed as Ac-WVTHRLAGLLSASGGVVRCNFVPTDVGPFAF-NH2
B11: SEQ ID NO 40 (peptide)
peptide: Ac-WVTHQLAGLLSQSGGVVRKNFVPTDVGPFAF-NH2
modifications: not fully specified (residue 19); printed as Ac-WVTHQLAGLLSQSGGVVRKNFVPTDVGPFAF-NH2
B12: SEQ ID NO 19 (peptide)
peptide: Ac-WVTHRLAGLLSRSGGVKRNNFVPTDVGPFAF-NH2
modifications: not fully specified (residue 17); printed as Ac-WVTHRLAGLLSRSGGVKRNNFVPTDVGPFAF-NH2
B13: SEQ ID NO 14 (peptide)
peptide: Ac-WVTHRLAGLLSRSGGVVCNNFVPTDVGPFAF-NH2
modifications: not fully specified (residue 18); printed as Ac-WVTHRLAGLLSRSGGVVCNNFVPTDVGPFAF-NH2
B14: SEQ ID NO 17 (peptide)
peptide: Ac-WVTHRLAGLLSRSGGVVRCNFVPTDVGPFAF-NH2
modifications: not fully specified (residue 19); printed as Ac-WVTHRLAGLLSRSGGVVRCNFVPTDVGPFAF-NH2

target: T1, CGRP1 receptor (CRLR/RAMP1 complex) of human neuroblastoma SK-N-MC cells (human, UniProt Q16602 23-461; O60894 27-148); assay: 125I-hαCGRP competition, SK-N-MC membranes
T1 construct: whole, on cells
T1 sequence (Q16602 23-461, chain 1 of 2): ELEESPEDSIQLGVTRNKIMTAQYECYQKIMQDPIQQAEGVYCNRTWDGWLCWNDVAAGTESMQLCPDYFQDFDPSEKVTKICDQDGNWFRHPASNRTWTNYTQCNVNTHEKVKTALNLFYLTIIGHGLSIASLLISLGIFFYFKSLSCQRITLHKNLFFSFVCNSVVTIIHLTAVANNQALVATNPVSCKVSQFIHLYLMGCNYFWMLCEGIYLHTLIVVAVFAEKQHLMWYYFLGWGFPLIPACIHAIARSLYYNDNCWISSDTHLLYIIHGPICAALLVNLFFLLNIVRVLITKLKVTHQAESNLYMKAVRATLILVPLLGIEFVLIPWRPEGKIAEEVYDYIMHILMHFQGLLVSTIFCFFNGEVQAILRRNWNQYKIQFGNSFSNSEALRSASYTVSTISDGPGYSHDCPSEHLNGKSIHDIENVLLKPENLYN
T1 sequence (O60894 27-148, chain 2 of 2): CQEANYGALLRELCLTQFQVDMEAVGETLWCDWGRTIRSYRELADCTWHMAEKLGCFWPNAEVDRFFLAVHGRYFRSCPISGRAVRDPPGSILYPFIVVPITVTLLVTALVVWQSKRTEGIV
Description: CGRP₁ binding experiments. […] The plates were incubated at room temperature for 2 hour with shaking at 60 rpm, then the contents of each well were filtered over 0.5% polyethyleneimine (PEI)-treated (at least one hour) GF/C 96-well filter plates. The GF/C filter plates were washed 6 times with ice-cold 50 mM Tris, pH 7.5 and dried in an oven at 55 C for 1 hour. The bottoms of the GF/C plates were then sealed, and 40 μl Microscint™ 20 was added to each well, then the tops of the GF/C plates were sealed with TopSeal™-A, a press-on adhesive sealing film, and the GF/C plates were counted with TopCount NXT (Packard). The data were analyzed by using ActivityBase (IDBS) or Prizm (GraphPad) software.

Binder | Ki [nM]
WVTHXLAGLLSXSGGVVRKNFVPTDVGPFAF (Ac-WVTH(Cit)LAGLLS(Cit)SGGVVRKNFVPTDVGPFAF-NH2) [SEQ ID NO 31] | 0.46

target: T1, CGRP1 receptor (CRLR/RAMP1 complex) of …; assay: cell-based or functional assay

Binder | IC50 [nM]
WVTHXLAGLLSXSGGVVXKNXVXTDVGPXAF (Ac-WVTH[Cit]LAGLLS[Cit]SGGVV[hArg]KN[pI-Phe]V[Oic]TDVGP[pI-Phe]AF-NH2) [SEQ ID NO 136] | 2.34

target: T1, CGRP1 receptor (CRLR/RAMP1 complex) of …; assay: cell-based or functional assay; remark: another data set of the same source

Binder | fold change in potency against SEQ ID NO:36 [fold] | fold loss of antagonist activity against SEQ ID NO:35 [fold] | fold loss of antagonist activity against SEQ ID NO:5 [fold] | fold loss of antagonist activity against SEQ ID NO:41 [fold] | fold change in potency against SEQ ID NO:1 [fold] | fold loss of antagonist activity against SEQ ID NO:7 [fold] | fold loss of antagonist activity against SEQ ID NO:21 and 23 [fold] | fold loss of potency against SEQ ID NO:27 and 29 [fold]
B1 | > 42 |  |  |  |  |  |  | 
B2 |  | > 12 |  |  |  |  |  | 
B3 |  |  | > 15 |  |  |  |  | 
B4 |  |  |  | > 32 |  |  |  | 
B5 |  |  |  |  | ~12 | ~3 |  | 
B6 |  |  | > 15 |  |  |  |  | 
B7 |  |  |  |  | ~31 |  |  | 
B8 |  |  |  |  | ~12 | ~3 |  | 
WVTHXLAGLLSXSGGVVRKNFVPTDVGPFAF (Ac-WVTH(hR)LAGLLS(hR)SGGVVRKNFVPTDVGPFAF-NH2) [SEQ ID NO 25] |  |  |  |  |  |  | ~5 | 
WVTHXLAGLLSXSGGVVRKNFVPTDVGPFAF (Ac-WVTH(Cit)LAGLLS(Cit)SGGVVRKNFVPTDVGPFAF-NH2) [SEQ ID NO 31] |  |  |  |  |  |  |  | ~3

target: T1, CGRP1 receptor (CRLR/RAMP1 complex) of …; assay: cell-based or functional assay; remark: another data set of the same source

Binder | IC50 [nM]
B1 | 0.11
B2 | 4.69
Ac-WVTHRLAGLLSQSGGVVRCNFVPTDVGPFAF-NH2 [SEQ ID NO 35] | 0.37
Ac-WVTHRLAGLLSASGGVVRCNFVPTDVGPFAF-NH2 [SEQ ID NO 33] | 2.75
B9 | 0.59
B4 | 19.4
B10 | 6.2
Ac-WVTHQLAGLLSQSGGVVRKNFVPTDVGPFAF-NH2 [SEQ ID NO 39] | 0.53
WVTHXLAGLLSRSGGVVRKNFVPTDVGPFAF (Ac-WVTH(hR)LAGLLSRSGGVVRKNFVPTDVGPFAF-NH2) [SEQ ID NO 21] | 0.44
WVTHXLAGLLSRSGGVVRKNFVPTDVGPFAF (Ac-WVTH(Cit)LAGLLSRSGGVVRKNFVPTDVGPFAF-NH2) [SEQ ID NO 27] | 0.57
WVTHRLAGLLSXSGGVVRKNFVPTDVGPFAF (Ac-WVTHRLAGLLS(hR)SGGVVRKNFVPTDVGPFAF-NH2; 20 k Da PEG, Amine linkage) [SEQ ID NO 24] | 0.33
WVTHRLAGLLSXSGGVVRKNFVPTDVGPFAF (Ac-WVTHRLAGLLS(Cit)SGGVVRKNFVPTDVGPFAF-NH2; 20 k Da PEG, Amine linkage) [SEQ ID NO 30] | 0.96
WVTHXLAGLLSXSGGVVRKNFVPTDVGPFAF (Ac-WVTH(hR)LAGLLS(hR)SGGVVRKNFVPTDVGPFAF-NH2; 20 k Da PEG, Amine linkage) [SEQ ID NO 26] | 0.37
WVTHXLAGLLSRSGGVVRKNFVPTDVGPFAF (Ac-WVTH(hR)LAGLLSRSGGVVRKNFVPTDVGPFAF-NH2; 20 k Da PEG, Amine linkage) [SEQ ID NO 22] | 0.36
WVTHXLAGLLSXSGGVVRKNFVPTDVGPFAF (Ac-WVTH(hR)LAGLLS(hR)SGGVVRKNFVPTDVGPFAF-NH2) [SEQ ID NO 25] | 2.1
WVTHXLAGLLSRSGGVVRKNFVPTDVGPFAF (Ac-WVTH(Cit)LAGLLSRSGGVVRKNFVPTDVGPFAF-NH2; 20 k Da PEG, Amine linkage) [SEQ ID NO 28] | 2.08
WVTHRLAGLLSXSGGVVRKNFVPTDVGPFAF (Ac-WVTHRLAGLLS(hR)SGGVVRKNFVPTDVGPFAF-NH2) [SEQ ID NO 23] | 0.57
WVTHXLAGLLSXSGGVVRKNFVPTDVGPFAF (Ac-WVTH(Cit)LAGLLS(Cit)SGGVVRKNFVPTDVGPFAF-NH2; 20 k Da PEG, Amine linkage) [SEQ ID NO 32] | 3.74
WVTHXLAGLLSXSGGVVRKNFVPTDVGPFAF (Ac-WVTH(Cit)LAGLLS(Cit)SGGVVRKNFVPTDVGPFAF-NH2) [SEQ ID NO 31] | 1.8
WVTHRLAGLLSXSGGVVRKNFVPTDVGPFAF (Ac-WVTHRLAGLLS(Cit)SGGVVRKNFVPTDVGPFAF-NH2) [SEQ ID NO 29] | 0.58
B11 | 1.33
Ac-WVTHRLAGLLSQSGGVVRKNFVPTDVGPFAF-NH2 [SEQ ID NO 37] | 0.56

target: T1, CGRP1 receptor (CRLR/RAMP1 complex) of …; assay: cell-based or functional assay; remark: another data set of the same source

Binder | IC50 [nM]
B3 | 3.05
B5 | 0.39
B6 | 2.15
B7 | 0.16
B8 | 0.42
B12 | 0.98
B13 | 2.2
B14 | 1.9

Source: patent US20080020978A1 (Amgen, published 2008)
